Source: patent publication US20220054955A1

Biological target: GST
Assay: photo-crosslinking of 7 mg/ml GST with 1 mM aziethyl glutathione (337 nm, 30 minutes), whole-protein LCMS

percent of GST molecules covalently crosslinked: 40%
Substance: aziethyl glutathione
